Data on one substance can be found in publication PMC6448830.

The target in the assay is HA-2B4 (A. trivirgatus 2B4 ectodomain fused to human 2B4 from residue 219 to the stop codon), on COS-7 cells (Aotus trivirgatus | human) (UniProt Q9BZW8). Description: flow cytometry on cells; cells incubated with the Fc fusion protein (8 μg/mL or a range of concentrations), then anti-human IgG (Fc specific) mAb and anti-mouse IgG-PE; 20% rabbit serum and 1% fetal bovine serum in PBS. A general note: In flow cytometry, cells or beads pass a laser one at a time.

Substance A43-Fc fusion protein gave a percent of 2B4-transfected COS-7 cells binding A43-Fc (highest dose) of 80.9%.
